These results are taken from the supplement of paper PMC9732359.

The nature of the data set: protein stability index of a GFP-peptide fusion (yeast GPS) (PSI 1-4); higher = more stable; sorted into four equal gates, so the index is relative within each strain. In outline:
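Peptides tiling yeast proteins in 17-residue segments were fused downstream of GFP, with Cherry expressed from the same plasmid. As a pooled library in yeast, mid-log cultures grown in leucine-free medium were sorted into four equal gates by GFP/Cherry fluorescence ratio. Gate plasmids were PCR-amplified and Illumina-sequenced, and barcodes linked reads to strains. Each peptide received a protein stability index equal to the sum of each gate's read frequency times its gate number.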

± gives the uncertainty stated by the source.

Turning to DYRPAEETEAQAEPVEA [RPS3], the protein stability index runs as follows: (doa10∆) 2.93 ± 0.075; (pdr5∆) 3.26 ± 0.065; (san1∆) 3.14 ± 0.038; (ubr1∆) 3.17 ± 0.052.
For DYSKPNLPPHYALFLKA [SSN2], in that order: 2.15 ± 0.07, 2.03 ± 0.073, 1.78 ± 0.11 and 1.99 ± 0.056.
DYYYEDAGSNQYYVTQH [SWI1] returned a protein stability index (doa10∆) of 3.15 ± 0.1, a protein stability index (pdr5∆) of 3.34 ± 0.082, a protein stability index (san1∆) of 3.09 ± 0.14 and a protein stability index (ubr1∆) of 3.22 ± 0.095.
As to EAESLLQFHVATYMDND [RPO21], the protein stability index turned out to be 2.82 ± 0.1 (doa10∆), 2.7 ± 0.13 (pdr5∆), 2.7 ± 0.073 (san1∆) and 2.94 ± 0.15 (ubr1∆).
As to EAINGFKDETISKKIIG [SIR3], the protein stability index was 3.08 ± 0.065 (doa10∆), 3.19 ± 0.057 (pdr5∆), 2.95 ± 0.082 (san1∆) and 3.09 ± 0.063 (ubr1∆).
On to EALQYDPQPFLKHVLQL [SNU114], for which the protein stability index by setting is: (doa10∆) 2.17 ± 0.04; (pdr5∆) 2.53 ± 0.047; (san1∆) 2.35 ± 0.075; (ubr1∆) 2.65 ± 0.038.
Take EAMYKLQLASLQQKQRD [SMC3]: the protein stability index came to 2.71 ± 0.091 (doa10∆), 2.76 ± 0.078 (pdr5∆), 2.52 ± 0.087 (san1∆) and 2.54 ± 0.063 (ubr1∆).
For EAQDEASLQQQQQQDLQ [SNF6], in that order: 3.27 ± 0.14, 3.15 ± 0.1, 3.12 ± 0.073 and 3.2 ± 0.18.
The matching figures for EARFWHLVELLLVFRNA [YDL116W/NUP84]: 2.69 ± 0.079, 2.1 ± 0.065, 2.06 ± 0.085 and 2.02 ± 0.064.
For the sequence EATSNTNSEDKLSKVQL [MED4], the protein stability index is, setting by setting: (doa10∆) 2.82 ± 0.13; (pdr5∆) 2.92 ± 0.071; (san1∆) 2.77 ± 0.087; (ubr1∆) 2.93 ± 0.075.
As to EAVEIPVNSADGKEDVE [SME1], the protein stability index stood at 2.29 ± 0.061 (doa10∆), 2.8 ± 0.056 (pdr5∆), 2.77 ± 0.04 (san1∆) and 2.67 ± 0.04 (ubr1∆).
Regarding ECGTGTTIHTFNRKENP [RPN14], the protein stability index is 2.11 ± 0.18 (doa10∆), 2.5 ± 0.1 (pdr5∆), 2.21 ± 0.12 (san1∆) and 2.05 ± 0.13 (ubr1∆).
For ECSKDMKEDGLSFVDIV [SIR4], in that order: 2.75 ± 0.17, 3.39 ± 0.1, 3.1 ± 0.088 and 3.03 ± 0.065.
For EDDESLGHKELKVRKGH [RPB2], the protein stability index runs as follows: (doa10∆) 2.29 ± 0.071; (pdr5∆) 2.54 ± 0.067; (san1∆) 2.45 ± 0.076; (ubr1∆) 2.97 ± 0.049.
For EDDNTPAGHAGNPTNIS [YDL088C/ASM4], in that order: 2.87 ± 0.076, 2.88 ± 0.063, 2.91 ± 0.052 and 3.1 ± 0.046.
On to EDDSSNSCFSDGSQQNL [REC8], for which the protein stability index turned out to be 3.7 ± 0.22 (doa10∆), 3.65 ± 0.12 (san1∆) and 3.32 ± 0.1 (ubr1∆).
As to EDDTQIVTGNLVLDLLT [IRR1], the protein stability index came to 2.12 ± 0.055 (doa10∆), 2.83 ± 0.047 (pdr5∆), 2.26 ± 0.085 (san1∆) and 2.26 ± 0.037 (ubr1∆).
For the sequence EDEDEDLFGDSNKSNST [SSN2], the protein stability index was determined as 2.69 ± 0.05 (doa10∆), 2.82 ± 0.061 (pdr5∆), 2.86 ± 0.079 (san1∆) and 2.18 ± 0.032 (ubr1∆).
Regarding EDEFIVQHDQILVMETS [SWP82], the protein stability index was determined as 2.95 ± 0.069 (doa10∆), 2.54 ± 0.063 (pdr5∆), 2.33 ± 0.082 (san1∆) and 2.98 ± 0.048 (ubr1∆).
For EDFPIDTWANGETIKSN [SEM1], in that order: 3.55 ± 0.14, 3.61 ± 0.19, 3.13 ± 0.2 and 3.15 ± 0.15.
As to EDILYYSTCPSETDLND [SRB8], the protein stability index (doa10∆) is 2.29 ± 0.12, the protein stability index (pdr5∆) was determined as 1.56 ± 0.099, the protein stability index (san1∆) turned out to be 2.14 ± 0.11 and the protein stability index (ubr1∆) was 1.92 ± 0.1.
EDLFETISQALLNAADR [PUP3]: the protein stability index runs as follows: (doa10∆) 2.81 ± 0.12; (pdr5∆) 2.01 ± 0.089; (san1∆) 1.89 ± 0.16; (ubr1∆) 1.92 ± 0.067.
Turning to EDPKRRADTMDFKTDVD [YJL039C/NUP192], the protein stability index turned out to be 3.29 ± 0.1 (doa10∆), 3.51 ± 0.086 (pdr5∆), 3.4 ± 0.096 (san1∆) and 3.24 ± 0.1 (ubr1∆).
In the case of EDSSILQSIVNEISRNG [PCI8], the protein stability index reads like this: (doa10∆) 3.13 ± 0.13; (pdr5∆) 2.96 ± 0.1; (san1∆) 3 ± 0.054; (ubr1∆) 3.41 ± 0.09.
